{"source": "paper doi:10.1101/2021.01.29.428744", "molecular_target": "AlexaFluor594-tagged α-SYN pre-formed fibrils (PFFs) (human) (UniProt P37840)", "assay": "two-color coincidence detection", "data": [{"substance": "[…]1 (from UniProt Q9H0R8 1-117) (natural protein)", "values": [{"measurement": "relative presence of GFP species in the aggregates", "value": 0.14}]}]}
